Data reported in the DeepSol protein solubility set.

experiment: soluble on expression in E. coli; label from the status in PepcDB or PDB records

Sequence	soluble on expression in E. coli
MKVLVTGATSGLGRNAAQWLLEAGHEVYAIGRDQLAGEELRKLGATFIPLDLTMTTMEVCQQWLKTCDVVWHCAAKSAPWGNPQDFHQTNVVVTHKLAQAAGREGVKRFIHISSPAVYFDFRHHHDLPETYRASRFSSHYASSKYAAEQVLHECIAHYPDTTYVILRPRGLFGPHDRVIVPRLLQQLSRDRNVLRLPGGGQAQLDLTFVLNVVHAMMLATDNDGLRSGAIYNITNQEPQRLVTMLDSLLNQQLHINYTLQPVPYSLLSVVAAGMELVASMTQKEPLLTRYSVGAVYFDMTLNSERAINELGYRPRYSMAEGIVLAGEWLSAQRSGQHG	not soluble
MGQEKLLFDQKYKIIKGEKKEKKKNQRANRREHQQKREIMRFKKSFTCIDMHTEGEAARIVTSGLPHIPGSNMAEKKAYLQENMDYLRRGIMLEPRGHDDMFGAFLFDPIEEGADLGIVFMDTGGYLNMCGHNSIAAVTAAVETGIVSVPAKATNVPVVLDTPAGLVRGTAHLQSGTESEVSNASIINVPSFLYQQDVVVVLPKPYGEVRVDIAFGGNFFAIVPAEQLGIDISVQNLSRLQEAGELLRTEINRSVKVQHPQLPHINTVDCVEIYGPPTNPEANYKNVVIFGNRQADRSPCGTGTSAKMATLYAKGQLRIGETFVYESILGSLFQGRVLGEERIPGVKVPVTKDAEEGMLVVTAEITGKAFIMGFNTMLFDPTDPFKNGFTLKQYIWSSSVDKLAAALEHHHHHH	soluble
SLTKKVTIGSYIKFSDSCKRDGLANYSEQGRFWDVHRSQADDVQKIYNQELEFQRLAQRIGNCSGILRFSQIDDDETGKKKLKLRLQEAHFCRVRHCPVCQWRRSLMWQARFYSALPAIIKEYPKARFLFLTLTVKNCHIEDLSDTLRIMNSGWQRLKDRKEFKSVLGWIRSTEVTKGKDGSAHPHFHILLMVPPSWFTHSYVKKSRWAELWAYCARLDYSPVVDIRTVKNCVPEASSGLTEGLKAAVAETLKYSVKPSDMIEGNNWFLQMTKQVHRKRFIASGGVLKNILRESQETNEDLIFADNLNEISDRSRIAFNWRQSEKCYRRFEQGD	soluble
MLTYIILVLHLQNHVWEDVTVHNSSLPPLAIKHPECLGLLHQLERSTDVWIQHYCILKDGCLYFYASIRSTQASGGLYLQGYSVSEQTHGFEQPVIELKPSSEEFKTFYFCAENKTENQRWIAALKTSIKKWLPLDQAIQEFMSRPLEETRM	not soluble
MSLTKNNISFYVVDASEELTMNIKEASEKSGVSADTIRYYERIGLIPPIHRNESGVRKFGAEDLRWILFTRQMRRAGLSIEALIDYLALFREGEHTLEARAELLKKQRIELKNRIDVMQEALDRLDFKIDNYDTHLIPAQEELKDFNVERSNEGHHHHHH	soluble
MGSDKIHHHHHHVAKPKTVYICSECGGQSPKWAGQCPSCNAWNTLVESVAEAPSTHRFQSLAKSAPVRRLADIEASDVPRFTTGVSEFDRVLGGGLVPGGVVLIGGDPGIGKSTLLLQSLAEIAADKRALYISGEESAAQIALRAQRLSLLEPGSRASELQLLAEIQLEKIQATIAEQRPDVAVIDSIQTVYSDALTSAPGSVAQVRECAAQLTRIAKQSGTTIIMVGHVTKEGALAGPRVLEHIVDTVLYFEGDTHSSYRLVRAIKNRFGAVNELGVFAMTERGLRGVANPSALFLSQHEQSVAGSCVLVTQEGTRPLLVEVQALVDAANAPNPRRLAVGLEQNRLAMLLAVLHRHAGIACFDQDVFLNAVGGVKITEPAADLAVLLAIHSSMRNKPLPKGLVVFGEVGLAGEIRPSPRGQERLKEAAKLGFSVAVIPRANAPKQPIEGLQVVAVERIEQAIDRVRTLE	not soluble
MAHHHHHHMGGGGSIPRKKATSARQVSTDRSVRRLQTKRRVGEPRFNGIGYVTIPLCIQEDLPPPPEDDDAPDDSTRKFAWFVEDLDMPGEWELYPPDACERLDEARRSNMTECLVVVKKRMCTVNLVKMEHLCAGSNARPRQVKRVEVEVSNGTTTYQEKRKVPNDPFAEDSPRETPSPMELFESEENAVHDVGSATTTKAEPEKVPNLVRSILTEKTTSYAMSLTSNGTTVFSGTKAQMLRWDLKTAEVTAEFDVQDSVVLSNALSHDERHVVAGRSDCTASMHSVDGSTSCVFSGHQRKVYGVDFLLGDDRVATASMDCTVRIWDASTSTCVQTIGCSAASVFTVVTSDLNNHFALSAGDDNIIYAHDLRSGGDCVIDRFIDHASTVWCCALRNDEQVFASCGIDGVIRVWDIRNSSSPTLLLRHHEKPVHMVKFTPRGRAILSCGRDDNMRLTDAMTGEPLWRAVAHRRFVYRIAFSKEKKFILSSGGDHRVNVWNYDYIDRM	not soluble
MRIDFGAGDEISFIKKGHAGVIKLARSSALNALNGRMVSALKKALSVWETDDDVSCVLIEGEGRAFCAGGDVVEIYHMEEKISSYQYFNDEYRLNAYIKHFRKPYISFLNGIWMGGGVGISIYGSHRIVTENTLFAMPESAIGFFPDVGASFFLPSLPDHFGIYLALTGARIKWGDCLNLGLATHAVPEIELECIRKAIIEQGNPQLALEEHAITKDYETSHEIRSVINACFGTHTLEECMELLYKKSNEGLFFARECYDILQSRSPTSLKVIWKQMKQNSSQTLEECMKIENRIAHHMINSHDFREGVRAMLIDKDKTPKWQPDKLSNITDEMIDAYFQPVEKELLF	not soluble
MFTTVITPRVSETDGVGHINNTTVPVWFEAGRHEIFKLFTPDLSFKRWRMVIIRMEVDYVNQMYYGQDVTVYTGIERIGNTSLTIYEEIHQNGVVCAKGRSVYVNFNFDTGRPEPIPDDIRVKLREHVWQPGE	soluble
MNVWLLGRGELRRRHDDVLQLERAFLTDRTGLHFVNARSSEDLLALAESRRAEQQWPVLDAEWISPVGTDTCDDLVWQNLESTLDGRPDTFYSTAGFEAGNTLSGTGELAPGEAFLAYRFWRPVRVYAVQLRAFQADFHPGRPVYPFQVARVGVGCSLQAGMSLSYGADASAPGTSCNYRCFCTTEQQTLVFDDPMVGVYLVICLKGFPQQQLTDRLHYAAVSGIRVFGEPISSPALENELSCLISRGFILDGRDAARWLDLRSAQEHAAPMHIPEDEVI	not soluble
MIKSYKIRGTSLTVNRSDSYPDACNWTADSFGMLFYDPEYDLSTESLSITLDAGNDWVPEGGLVYESLPVKVTYENPEMMDYGTDWFNQGYSALGWNGEEYAYLGTDRGIVNILLEEDEKILYPNEEYDLKEGYTLKVTDLASDKACLTLSRNKLPVYSSIISPGKSADLGTHTFLYKKELNGVEVPLFSVYVDSVIQGDELSAVNLKHLLHFSDSPLELNYGKEYGELTIVETYPKLRLENKHVVWSGSDINVTEDIWIGRFEKKTAGNLFVLEHHHHHH	soluble
GMELTALDKLEIMELAARFEMSLDKEDVENYLATFASDGALQGFWGIAKGKEELRQGFYAMLDTFARGKRHCSSNAIIQGNYDEATMESYLTVVNREDLNRAGSAFVKDQVRKINGKWYLILRQIEVDPSLPLLQQSQQAGANA	soluble
MGSDKIHHHHHHMSSLQISQGTFRLSDTKTLKIDHLSVAAGESWAFVGSNGSGKSALARALAGDLPLLSGQRESHFSRVTRLSFEQLQKLVSDEWQRNNTDLLSPGEEDTGRTTAEIIQDEVKDPARCARLAEQFGISALLDRRFKYLSTGETRKTLLCQALMTDPQLLILDEPFDGLDVNSRQQLAALLADLHSAGITLVLVLNRFDEIPEFVQFAGVLADCTLSETGEKSSLLQQALVAQLAHSEKLDGITLPEPDVPPARHALADSAPRIVLNDGVVSYNDRPVINHLSWTVNPGEHWQIVGPNGAGKSTLLSLVTGDHPQGYSNDLTLFGRRRGSGETIWDIKKHIGYVSSSLHLDYRVSTNVRNVILSGYFDSIGIYQAVSDKQHKLVQQWLDILGIDKRTADAPFHSLSWGQQRLALIVRALVKHPTLLILDEPLQGLDPLNRQLVRRFVDVLIGEGATQLLFVSHHAEDAPDCITHRLAFVPSGDGYTYQLGPVA	not soluble
MSLVLRKRSMKLGDLKVHTLAIPLREPIQFSWEPFPHPVYVFSIVEVEAGGFKGYSAIEFGAAYKHFLETTVKLTIQGLDIEIEDVDARLLEVGSWAIQRLGALEVAIWDLIAKREGLPLYRLLGGGRRKVKVYASTGRLLSAEETVKMVEKYAELGIDVVKLRFRRERINEDLEVLKAVAREFSDVKISVDANQAWSYTPPYWSRKKAMKVAKELENFEVLWLEEPLWKDDVEGYRWLRENTSIEISGGELEHGIQRFRMLIEGGAFDIVQADAVYSNGIQECRKVAALAEAFNLKFMPHAWDPGLGWLANLHLAASLPEKLCPYIETPLDPLWWNEVMFGVLNGEVELEKGYAKLPEQPGLGFEPDEEKMKKFRIAEGHHHHHH	not soluble
MGSDKIHHHHHHMKKSLIELLEARQKATDELAEVKLKKATIEAKMKSSTIEDDDLEQLKTDAESLVSQATAIKETIAGLDSDIEETEEELSKAAKIIKEKQKGNTPMDYLKTKAAALDFVRILMDNEGSANSARKAWEANLVEKGVTNLTKILPEPVLIAIQDAFTNYNGILNHVSKDPRYAVRVALQTQVSQAKGHKAGKTKKDEDFTFLDFTINSATVYIKYAFEYSDLKKDTTGAYFNYVMKELAQGFIRTIERAVVIGDGKSNSAEDKITEIKSIAEETEANLFETQEINVAGVFDNAVLETLVAGIDKMVPNTTPILVTSKAIARKLKLVKDAEGRYIDPQPFAPIATNGNVIAGFQVYIYDWMDGATNPIIAFADQAYKMIGDEAAADRFDDYDVTVNRRHIELASVMGGRLAQYKSAVKFTNPAG	not soluble
MGSDKIHHHHHHLRLQLSTWPEVADYLSTRRGVIIPIGSTEQHGPSGLIGTDAITAEVVSWRAGEVLDTLVAPTIAVGMAHHHMAFPGSMTLRPSTLIAVIRDTILALSSHGFTRFLFVNGHGGNIPSIQSAFYEAYEEMRVHHGDGAPDIACQLCSWFSSPAVEALAAEAFGDAEGSHATPSEVSVTWHAYPDQQRTPVLDPPVAPQGRFTDSRDFRRAFPDGRIGSNPALATPELGGRFVEVAVDYIATTYGDFLKG	not soluble
MAVVKVIRKLKAKRVVIKVGTSTLVYPDGSINLRAIDQLAFVISAMRHRGREVVLVSSGAIGVGLNYMGLKQRPKAIPEQQAIAAIGQTELISIYKERFAIYEQKIGQLLLTRDIFVYPKSHHNVLNTFEALLKQNVVPIVNENDTVAVDELDHETKFGDNDQLSAIVATNIGADLLIMLSDIDGFYDGNPNADARAQLLGHIEKVDQHTYKLAGGSGSRFGTGGMVTKLKAAERMIDANGQMILANGADPTIIFQILAGEPVGTLFGLEHHHHHH	not soluble
MQSIKGNHLVKVYDYQEDGSVLLTCDAEAKNITWFKDGKMIGFLTEDKKKWNLGSNAKDPRGMYQCKGSQNKSKPLQVYYRMGSADDAKKDAAKKDDAKKDDAKKDGSDGNEEMGGITQTPYKVSISGTTVILTCPQYPGSEILWQHNDKNIGGDEDDKNIGSDEDHLSLKEFSELEQSGYYVCYPRGSKPEDANFYLYLRARV	soluble
MGSDKIHHHHHHMLSNKNKIRKLLNGIETGDPDAALVVNEQKYIQHNPHTKEGNIGLAELFKQIAKTGPRVNMIRVFEDKDFVFAHMEYHFSTLKVAFEVFRFEDGFAVEHWDNMQLMQKVNASGRSMLDGYLITEDHDLTEFNRSRVSLFANEILIKRKLDLLIDFVCDDNFIQHSPLLADGISALRSTLSATSKQKYKITYSKIHRVLAEGNFVLSVSEGLMDEKHCSFYDLYRIEKGKIVEHWDTIEPIPPRTEWKNDNGKF	not soluble
IGQVNLSARGNFTFARNEIIEYDQVPQVYPWLEKRGTRLNSNKLYIAEGLYTYDDFIINGEGLNRTYELKPGVVSGLSSGVRPGDIKYKDLNGDGKIDSNDQKEDVGNPTVPEVVYGFGFNAEWKGFYAGIFFQGAGNTSTVLGTGADATFFPFQWGVEESAVRSVVADRWTEQNPSQNVMFPRMHSNNFQNNTVASTWWLRDASFLRLKNIELGYNFDKKLLKKLNIEALRFYVQGNNLCVWDHIKMWDPEQGNSNGGFPYPLNRTFTFGLDFTF	not soluble
